Test results published in US9963506B2, “Human-mouse chimeric anti-CD147 antibody with non-fucosylated glycosylation” (Fourth Military Medical University, priority 2015, dated 2018).

Target: T1, CD147^+ A549 cells (Homo sapiens, UniProt P35613)
T1 construct: endogenous in cells; host or cells: A549 (human lung cancer cell line)
T1 sequence (P35613 22-269 isoform P35613-2 limits assumed): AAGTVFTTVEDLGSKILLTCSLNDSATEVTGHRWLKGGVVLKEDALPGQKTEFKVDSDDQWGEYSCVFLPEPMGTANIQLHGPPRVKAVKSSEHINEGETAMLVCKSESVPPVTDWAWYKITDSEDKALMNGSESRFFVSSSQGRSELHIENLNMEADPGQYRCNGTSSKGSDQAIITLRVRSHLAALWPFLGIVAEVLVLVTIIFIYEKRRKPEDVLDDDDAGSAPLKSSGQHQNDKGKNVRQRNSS
Assay: Antigen-binding activity by flow cytometry
Protocol: The antibody concentration is 0.001 μg/mL, 0.01 μg/mL, 0.1 μg/mL, 1 μg/ml and 10 μg/mL, respectively.
A549 cells (10^6 cells) were incubated with the Metuzumab (HcHAb18) and cHAb18 antibody, respectively, in PBS with 0.1% BSA at 4° C. for 1 h. After three washes in PBS with 0.1% BSA, cells were incubated with the FITC-conjugated Rabbit anti-Human IgG Fc Secondary Antibody (Pierce) at 4° C. in the dark for 45 min. Cells were then washed three times and suspended in PBS for analysis using a FACS Calibur flow cytometer (BD, New Jersey, U.S.). Relative antigen expression is reported as median fluorescence intensity (MFI).

CD147-binding ability, Metuzumab compared with cHAb18 (FIG. 4): similar | Binding to CD147^+ A549 cells (FIG. 4, 0.001-10 μg/mL): bound
Substance: cHAb18: human-mouse chimeric anti-CD147 antibody, variable domains from HAb18, human IgG1 constant domains, fucosylated (CHO K1)
